Experimental data taken from PMC3664792 (Nucleic Acids Research, 2013).

Assays:
α270-His6 = α270-His6 (E. coli, UniProt P10443 1-270); assay: NMR
[1] = target: α270 in construct A (εCTS35–α270) (E. coli, UniProt P10443 1-270); assay: NMR
[2] = target: α270(L21P) in construct A (E. coli, UniProt P10443 1-270, Leu21Pro); assay: crystal structure
His6-αGL = His6-αGL (E. coli, UniProt P10443 1-1160, A921L | M923L | Val832Gly); assay: pull-down
β2 sliding clamp = β2 sliding clamp (E. coli, UniProt P0A988 1-366); assay: SEC

B1: εCTS59 (domain or fragment)
chain: MAFAMEGETQQQQGEATIQRIVRQASKLRVVFATDEEIAAHEARLDLVQKKGGSCLWRA
α270-His6
  binding result: binds

## ASKLRVVFATDEEIAAHEARLDLVQKKGGSCLWRA (domain or fragment) [εCTS35 (residues 209–243 of ε) in construct A]
[1]
  binding result: binds
[2]
  binding result: binds

## ATIQRIVRQASKLRVVFATDEEIAAHEARLDLVQKKGGSCLWRA (domain or fragment) [εCTS44 (residues 200–243 of ε) in construct A]
[2]
  binding result: binds

B2: εL (natural protein)
chain: MSTAITRQIVLDTETTGMNQIGAHYEGHKIIEIGAVEVVNRRLTGNNFHVYLKPDRLVDPEAFGVHGIADEFLLDKPTFAEVADEFMDYIRGAELVIHNAAFDIGFMDYEFSLLKRDIPKTNTFCKVTDSLAVARKMFPGKRNSLDALCARYEIDNSKRTLHGALLDAQILAEVYLAMTGGQLSLPLAMEGETQQQQGEATIQRIVRQASKLRVVFATDEEIAAHEARLDLVQKKGGSCLWRA
His6-αGL
  binding result: binds
β2 sliding clamp
  binding result: binds
